Assay results taken from patent US20250043302A1, “MUTATED HYDROXYPHENYLPYRUVATE DIOXYGENASE POLYPEPTIDE, AND CODING GENE AND USE THEREOF” (BEIJING DABEINONG BIOTECHNOLOGY CO., LTD., priority 2021, published 2025).
Residue numbers refer to the chain shown, from its start. Names may count otherwise.

B1: NtHPPDm-F372A-02: nucleotide sequence encoding Nicotiana tabacum HPPD with F372A; vector DBN11751 (nucleic acid)
DNA: ATGGGGAAGCTGGAAACCGTCACTACCACCTCGGCGGCGGCTGCTGATGATTCATCGGAATTAACAACCAACTTCAAGTTGGTTGGTTTCAAAAATTTCATCAGAACAAACCCAAGGTCTGATTTCTTCTCCGTCAAGAGCTTCCACCACATTGAATTCTGGTGCGGTGACGCAACTAACACAGCGCGCCGCTTCTCATGGAGCCTAGGGATGCCAATTGCAGCTAAGAGTGATCTTTCAACAGGAAACAGCGTGCACGCCTCCTACCTCCTCCGGCCCGTAAGCGGTTCTTTACAGTTCCTGTTTACAGCACCATATTCACCTTCTATTTCGACTCCTAGTTCAGCTGCAATCCCATCTTTTTCCACATCTACACATAGGTCTTTCACTACAACACATGGACTGGGTGTTCGTGCCGTCGCCCTCGAGGTGGAGAATGCTTATACTGCCTTCAGTGCTTCTGTCTCCAGAGGCGCCAAGCCAATGTTTGAACCTGTGACAATTGATGAACAAGTAGCAATGGCTGAGGTTCATTTGTACGGCGATGTTGTGCTGCGATTTGTTTCTTATCTCAAGGACGCCGACAACCTGGTCTTCCTGCCGGGGTTTGAGGCCATGGATGAAACTGCTAGTTACAAAGAACTTGATTATGGAATACGGCGTTTGGATCATGCTGTGGGCAATGTTCCAGAACTCGGCCCGGTAGTTGATTACATCAAGAGGTTTACTGGATTTCATGAATTTGCAGAGTTTACCGCTGAAGATGTGGGAACTGCGGAAAGTGGGCTAAACTCCATGGTTCTTGCGAACAATGATGAGACTGTGCTCCTCCCTCTGAATGAGCCTGTTTATGGCACCAAAAGAAAATCTCAGATACAAACATATCTTGAGCATAATGAAGGAGCTGGGGTGCAGCACCTTGCTCTTGTTACTGAAGACATCTTTAAGACTTTGACAGAGATGAGGAAGAGAAGTGGAGTTGGAGGTTTTGAGTTCATGCCTTCCCCCCCGCCGACCTACTACAAGAATTTGAAGAACAGGGCTGGTGACGTCCTCTCAGACGAGCAGATTTTGGCTTGTGAGGAGCTTGGCATCTTGGTAGACCGGGACGACCAGGGGACGCTTCTCCAAATTGCCACAAAACCCGTCGGGGACCGCCCCACCATATTTATTGAGATCATCCAGAGGATAGGCTGCATGCTTAAAGATGGAAAAGGTCAAGTGTACCAGAAGGGTGGTTGTGGTGGGTTTGGCAAAGGAAATTTTTCTGAGCTGTTCAGAAGCATAGAAGAATATGAGAAGACACTGGAAGCAAAACAAGCAAATCAAGTTGCGGCCGCGTGA
modifications: NtHPPDm-F372A-02 Nucleotide Sequence
notes: vector DBN11751
B2: NtHPPDm-F383W-02: nucleotide sequence encoding Nicotiana tabacum HPPD with F383W; vector DBN11752 (nucleic acid)
DNA: B1 DNA with G1135T, C1136T, T1169G, T1170G
modifications: NtHPPDm-F383W-02 Nucleotide Sequence
notes: vector DBN11752

Columns and labels:
Assay type in all cases: in vivo
[1] = test system: Arabidopsis thaliana T1 plants; assay: Isoxaflutole tolerance of transgenic Arabidopsis thaliana T1 plants (spray, bleached leaf area grade, damage score); parameters: Scores (pesticide damage): scale not given here; details: spray, Arabidopsis thaliana T1 plants; for Classification and statistics of the grade of pesticide damage: Grade 0 (number of plants) / Classification and statistics of the grade of pesticide damage: Grade 1 (number of plants) / Classification and statistics of the grade of pesticide damage: Grade 2 (number of plants) / Classification and statistics of the grade of pesticide damage: Grade 3 (number of plants): 16 plants
Summary of the method: (§1)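 T1 transformants selected by glufosinate; 18-day-old plants, with empty-vector and wild-type controls, sprayed with topramezone (25–200 g ai/ha), isoxaflutole (35–280 g ai/ha) or mesotrione (52.5–420 g ai/ha), water as 0×. Bleached leaf area fraction scored at 7 DAT as grades 0–3.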

[2] = test system: Arabidopsis thaliana T1 plants; assay: Topramezone tolerance of transgenic Arabidopsis thaliana T1 plants (spray, bleached leaf area grade, damage score); details: 7 DAT, Table 4; for Classification and statistics of the grade of pesticide damage: Grade 0 / Classification and statistics of the grade of pesticide damage: Grade 1 / Classification and statistics of the grade of pesticide damage: Grade 2 / Classification and statistics of the grade of pesticide damage: Grade 3: number of plants; for Scores: pesticide damage score 0-100
Summary of the method: as §1

[3] = test system: Arabidopsis thaliana T1 plants; assay: Mesotrione tolerance of transgenic Arabidopsis thaliana T1 plants (spray, bleached leaf area grade, damage score); parameters: Scores: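 damage score 0-100 computed as Σ(N×S)/(T×M)×100 over grades 0-3 with higher meaning more damage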; details: Arabidopsis thaliana T1 plants; for Grade 0 (classification and statistics of the grade of pesticide damage; number of plants) / Grade 1 (classification and statistics of the grade of pesticide damage; number of plants) / Grade 2 (classification and statistics of the grade of pesticide damage; number of plants) / Grade 3 (classification and statistics of the grade of pesticide damage; number of plants): 16 plants
Summary of the method: as §1

[4] = isoxaflutole 35 g ai/ha (0.5x field concentration)
[5] = isoxaflutole 70 g ai/ha (1x field concentration)

| Molecule | Resistance evaluation [1, 4] | Scores (pesticide damage) [1, 4] | Classification and statistics of the grade of pesticide damage: Grade 0 (number of plants) [1, 4] | Classification and statistics of the grade of pesticide damage: Grade 1 (number of plants) [1, 4] | Classification and statistics of the grade of pesticide damage: Grade 2 (number of plants) [1, 4] | Classification and statistics of the grade of pesticide damage: Grade 3 (number of plants) [1, 4] | Resistance evaluation [1, 5] | Scores (pesticide damage) [1, 5] | Classification and statistics of the grade of pesticide damage: Grade 0 (number of plants) [1, 5] | Classification and statistics of the grade of pesticide damage: Grade 1 (number of plants) [1, 5] | Classification and statistics of the grade of pesticide damage: Grade 2 (number of plants) [1, 5] | Classification and statistics of the grade of pesticide damage: Grade 3 (number of plants) [1, 5] | Classification and statistics of the grade of pesticide damage: Grade 0 ([2]; topramezone 25 g ai/ha (1×)) | Classification and statistics of the grade of pesticide damage: Grade 1 ([2]; topramezone 25 g ai/ha (1×)) | Classification and statistics of the grade of pesticide damage: Grade 2 ([2]; topramezone 25 g ai/ha (1×)) | Classification and statistics of the grade of pesticide damage: Grade 3 ([2]; topramezone 25 g ai/ha (1×)) | Classification and statistics of the grade of pesticide damage: Grade 0 ([2]; topramezone 100 g ai/ha (4×)) | Classification and statistics of the grade of pesticide damage: Grade 1 ([2]; topramezone 100 g ai/ha (4×)) | Classification and statistics of the grade of pesticide damage: Grade 2 ([2]; topramezone 100 g ai/ha (4×)) | Classification and statistics of the grade of pesticide damage: Grade 3 ([2]; topramezone 100 g ai/ha (4×)) | further results |
| --- | --- | --- | --- | --- | --- | --- | --- | --- | --- | --- | --- | --- | --- | --- | --- | --- | --- | --- | --- | --- | --- |
| B1 | Poorly | 54 | 0 | 6 | 10 | 0 | Non-resistant | 100 | 0 | 0 | 0 | 16 | 0 | 6 | 10 | 0 | 0 | 0 | 0 | 16 | Scores ([2]; topramezone 25 g ai/ha (1×)): 54; Scores ([2]; topramezone 100 g ai/ha (4×)): 100; Resistance evaluation ([2]; topramezone 25 g ai/ha (1×)): poorly; Resistance evaluation ([2]; topramezone 100 g ai/ha (4×)): non-resistant (non-resistant plants (scores 68-100)); Resistance evaluation ([3]; mesotrione 52.5 g ai/ha): Poorly resistant; Scores ([3]; mesotrione 52.5 g ai/ha): 65; Grade 0 (classification and statistics of the grade of pesticide damage; number of plants) ([3]; mesotrione 52.5 g ai/ha): 0; Grade 1 (classification and statistics of the grade of pesticide damage; number of plants) ([3]; mesotrione 52.5 g ai/ha): 2; Grade 2 (classification and statistics of the grade of pesticide damage; number of plants) ([3]; mesotrione 52.5 g ai/ha): 13; Grade 3 (classification and statistics of the grade of pesticide damage; number of plants) ([3]; mesotrione 52.5 g ai/ha): 1; Resistance evaluation ([3]; mesotrione 105 g ai/ha): Non-resistant; Scores ([3]; mesotrione 105 g ai/ha): 100; Grade 0 (classification and statistics of the grade of pesticide damage; number of plants) ([3]; mesotrione 105 g ai/ha): 0; Grade 1 (classification and statistics of the grade of pesticide damage; number of plants) ([3]; mesotrione 105 g ai/ha): 0; Grade 2 (classification and statistics of the grade of pesticide damage; number of plants) ([3]; mesotrione 105 g ai/ha): 0; Grade 3 (classification and statistics of the grade of pesticide damage; number of plants) ([3]; mesotrione 105 g ai/ha): 16 |
| B2 | Non-resistant | 88 | 0 | 0 | 6 | 10 | Non-resistant | 100 | 0 | 0 | 0 | 16 | 0 | 0 | 10 | 6 | 0 | 0 | 0 | 16 | Scores ([2]; topramezone 25 g ai/ha (1×)): 79; Scores ([2]; topramezone 100 g ai/ha (4×)): 100; Resistance evaluation ([2]; topramezone 25 g ai/ha (1×)): non-resistant (non-resistant plants (scores 68-100)); Resistance evaluation ([2]; topramezone 100 g ai/ha (4×)): non-resistant (non-resistant plants (scores 68-100)); Resistance evaluation ([3]; mesotrione 52.5 g ai/ha): Non-resistant; Scores ([3]; mesotrione 52.5 g ai/ha): 100; Grade 0 (classification and statistics of the grade of pesticide damage; number of plants) ([3]; mesotrione 52.5 g ai/ha): 0; Grade 1 (classification and statistics of the grade of pesticide damage; number of plants) ([3]; mesotrione 52.5 g ai/ha): 0; Grade 2 (classification and statistics of the grade of pesticide damage; number of plants) ([3]; mesotrione 52.5 g ai/ha): 0; Grade 3 (classification and statistics of the grade of pesticide damage; number of plants) ([3]; mesotrione 52.5 g ai/ha): 16; Resistance evaluation ([3]; mesotrione 105 g ai/ha): Non-resistant; Scores ([3]; mesotrione 105 g ai/ha): 100; Grade 0 (classification and statistics of the grade of pesticide damage; number of plants) ([3]; mesotrione 105 g ai/ha): 0; Grade 1 (classification and statistics of the grade of pesticide damage; number of plants) ([3]; mesotrione 105 g ai/ha): 0; Grade 2 (classification and statistics of the grade of pesticide damage; number of plants) ([3]; mesotrione 105 g ai/ha): 0; Grade 3 (classification and statistics of the grade of pesticide damage; number of plants) ([3]; mesotrione 105 g ai/ha): 16 |
